Results reported in patent publication US20220002701A1 (CHILDREN S MEDICAL CENTER, published 2022).
Like-named read-outs stand apart in the source and are kept apart here.

How the values were obtained:
[1] = target: T1, stabilized soluble SARS-CoV-2 S ectodomain trimer in the pre-fusion conformation (SARS-CoV-2; bacteriophage T4, UniProt P0DTC2 14-1208; P10104 458-484)
T1 construct: also called soluble S trimer; S trimer

[2] = target: T1, stabilized soluble SARS-CoV-2 S …; remark: listed apart in the source

B1: ACE2615-foldon-K353Y (receptor)
chain: QSTIEEQAKTFLDKFNHEAEDLFYQSSLASWNYNTNITEENVQNMNNAGDKWSAFLKEQSTLAQMYPLQEIQNLTVKLQLQALQQNGSSVLSEDKSKRLNTILNTMSTIYSTGKVCNPDNPQECLLLEPGLNEIMANSLDYNERLWAWESWRSEVGKQLRPLYEEYVVLKNEMARANHYEDYGDYWRGDYEVNGVDGYDYSRGQLIEDVEHTFEEIKPLYEHLHAYVRAKLMNAYPSYISPIGCLPAHLLGDMWGRFWTNLYSLTVPFGQKPNIDVTDAMVDQAWDAQRIFKEAEKFFVSVGLPNMTQGFWENSMLTDPGNVQKAVCHPTAWDLGYGDFRILMCTKVTMDDFLTAHHEMGHIQYDMAYAAQPFLLRNGANEGFHEAVGEIMSLSAATPKHLKSIGLLSPDFQEDNETEINFLLKQALTIVGTLPFTYMLEKWRWMVFKGEIPKDQWMKKWWEMKREIVGVVEPVPHDETYCDPASLFHVSNDYSFIRYYTRTLYQFQFQEALCQAAKHEGPLHKCDISNSTEAGQKLFNMLRLGKSEPWTLALENVVGAKNMNVRPLLNYFEPLFTWLKDQNKNSFVGWSTDWSPYADSGGGGSGGYIPEAPRDGQAYVRKDGEWVLLSTFLGGSHHHHHH
notes: also called Sol-ACE2-Foldon-K353Y
How did the Kd [1] turn out when B1 was run?
Its Kd is 32.3 nM.

And the ka2 [1]?
The ka2 was 0.397.

And the kdis2 [1]?
Its kdis2 is 0.00545.

And the koff [1]?
Its koff is 0.00322 s⁻¹.

And the kon [1]?
Its kon is 99600 M⁻¹ s⁻¹.

What about the Kd [2] of the same binder?
The Kd was 32.3 nM.
